Patent US20210085800A1 (IMMUNOGEN, published 2021)

B1: huMOV19-C442-D5 (antibody, IgG1, V domains shown)
VH: QVQLVQSGAEVVKPGASVKISCKASGYTFTGYFMNWVKQSPGQSLEWIGRIHPYDGDTFYNQKFQGKATLTVDKSSNTAHMELLSLTSEDFAVYYCTRYDGSRAMDYWGQGTTVTVSS
VL: DIVLTQSPLSLAVSLGQPAIISCKASQSVSFAGTSLMHWYHQKPGQQPRLLIYRASNLEAGVPDRFSGSGSKTDFTLTISPVEAEDAATYYCQQSREYPYTFGGGTKLEIKR
modifications: compound D5 linked through its maleimide to the thiol of the engineered Cys 442 (EU/OU numbering); average 2 mol D5/mol antibody
B2: huMOV19-D2 (antibody, V domains shown)
VH: B1 VH
VL: B1 VL
modifications: compound D2 linked to lysine residues (positions and chain not stated)
B3: huMOV19 antibody (unconjugated) (antibody, human IgG1, V domains shown)
VH: B1 VH
VL: B1 VL
notes: Human IgG1; also called humanized MOV19 antibody; M9346A; copies: 2 + 2
B4: huMOV19-sulfo-SPDB-D1 (antibody, V domains shown)
VH: B1 VH
VL: B1 VL
modifications: compound D1 linked through a sulfo-SPDB linker to lysine side chain amino groups (positions and chain not stated)
B5: huMOV19-C442-D4 (antibody, IgG1, V domains shown)
VH: B1 VH
VL: B1 VL
modifications: compound D4 linked through its maleimide to the thiol of the engineered Cys 442 (EU/OU numbering); average 2 mol D4/mol antibody

Key:
[1] = biological target: T1, folate receptor alpha (FRα) on the surface of KB and T47D cells (UniProt P15328 25-234, limits assumed); experiment: cell-based or functional assay
T1 sequence (P15328 25-234 limits assumed, stated change not applied): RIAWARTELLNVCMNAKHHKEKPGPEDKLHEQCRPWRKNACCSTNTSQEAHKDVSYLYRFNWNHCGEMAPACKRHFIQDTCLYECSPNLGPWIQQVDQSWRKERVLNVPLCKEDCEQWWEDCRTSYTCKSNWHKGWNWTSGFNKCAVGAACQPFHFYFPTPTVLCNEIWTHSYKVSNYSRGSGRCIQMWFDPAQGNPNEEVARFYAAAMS

[2] = biological target: T1, folate receptor alpha (FRα) on the …; experiment: blocking of FRα on KB cells (2 µM) in a cytotoxicity assay
Description: The cell lines were cultured in culture medium as recommended by the cell supplier (ATCC or DSMZ). To each well of a flat bottom 96-well plate was added 1,000-2,000 cells in 100 μL of the culture medium. Conjugates were diluted into the culture medium using 3-fold dilution series and 100 μL were added per well. […] Control wells containing cells and the medium but lacking the conjugates, as well as wells containing medium only, were included in each assay plate. Assays were performed in triplicate for each data point. The plates were incubated at 37° C. in a humidified 6% CO₂ incubator for 5 to 6 days. Then the relative number of viable cells in each well was determined using either the Alamar Blue reagent according the manufacturer's protocol (Life Technologies) or the WST-8 based Cell Counting Kit-8 (Dojindo Molecular Technologies, Inc., Rockville, Md.). The apparent surviving fraction of cells in each well was calculated by first correcting for the medium background absorbance, and then dividing each value by the average of the values in the control wells (non-treated cells). The surviving fraction of cells was plotted against conjugate concentration in semi-log plots.

| Binder | fold loss of cytotoxicity when FRα is blocked by unconjugated huMOV19 [1] [fold] | binding result [2] |
| --- | --- | --- |
| B1 | 100 |  |
| B2 | 100 |  |
| B3 |  | binds |
| B4 | 100 |  |
| B5 | 100 |  |
